From patent US6391302 (LUDWIG INSTITUTE FOR CANCER RESEARCH, dated 2002)
Residue numbers refer to the chain shown, from its start.

T1: human FB5 (endosialin) cancer antigen (human, UniProt Q9HCU0 18-757)
T1 construct: whole, on cells; The antigen is presented on LA1-5s cells; also called FB5 antigen
T1 sequence (looked up): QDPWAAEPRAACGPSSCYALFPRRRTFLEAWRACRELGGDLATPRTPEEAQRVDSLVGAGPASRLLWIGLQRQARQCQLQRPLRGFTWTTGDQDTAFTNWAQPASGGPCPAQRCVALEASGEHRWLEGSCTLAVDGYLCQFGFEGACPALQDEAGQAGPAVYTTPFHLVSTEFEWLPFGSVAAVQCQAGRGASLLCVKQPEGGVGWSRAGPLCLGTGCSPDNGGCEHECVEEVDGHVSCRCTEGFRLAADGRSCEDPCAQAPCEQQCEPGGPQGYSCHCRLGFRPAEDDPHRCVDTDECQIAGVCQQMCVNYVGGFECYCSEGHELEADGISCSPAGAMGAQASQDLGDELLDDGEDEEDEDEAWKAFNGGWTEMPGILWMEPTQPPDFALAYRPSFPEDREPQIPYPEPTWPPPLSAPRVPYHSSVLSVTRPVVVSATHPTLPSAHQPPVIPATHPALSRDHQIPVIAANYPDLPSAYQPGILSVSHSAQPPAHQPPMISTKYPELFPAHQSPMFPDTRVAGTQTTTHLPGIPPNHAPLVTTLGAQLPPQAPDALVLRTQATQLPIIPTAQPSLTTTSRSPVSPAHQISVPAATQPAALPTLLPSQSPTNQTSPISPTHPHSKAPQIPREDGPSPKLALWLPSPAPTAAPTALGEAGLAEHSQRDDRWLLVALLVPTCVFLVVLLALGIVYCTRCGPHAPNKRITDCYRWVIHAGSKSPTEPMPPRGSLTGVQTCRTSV

B1: FB5HuVHK/HuVK (antibody, V domains shown)
VH: QVQLQESGPGLVRPSQTLSLTCTASGYTFTDYVIHWVKQPPGRGLEWIGYINPYDDDTTYNQKFKGRVTMLVDTSSNTAYLRLSSVTAEDTAVYYCARRGNSYDGYFDYSMDYWGQGSLVTVSS
VL: DIQMTQSPSSLSASVGDRVTITCRASQNVGTAVAWLQQTPGKAPKLLIYSASNRYTGVPSRFSGSGSGTDYTFTISSLQPEDIATYYCQQYTNYPMYTFGQGTKVQIK
B2: FB5HuVHK,QA,LT,VK/HuVK (antibody, V domains shown)
VH: B1 VH with R67Q, V68A, M70L, L71T, D73V, T74K
VL: B1 VL
B3: FB5HuVH/HuVK (antibody, V domains shown)
VH: B1 VH with K38R
VL: B1 VL
notes: also called reshaped antibody FB5HuVH/HuVK

Biological target: T1, human FB5 (endosialin) cancer antigen
Assay: mixed hemadsorption (MHA) rosetting assay on LA1-5s human neuroblastoma cells, protein A-conjugated red blood cells as indicator

| Concentration of antibody for 50% rosetting [ng/mL] | Molecule |
| --- | --- |
| 3 | chimeric FB5 antibody |
| 3 | murine monoclonal antibody mAbFB5 |
| 16 | B1 |
| 16 | B2 |
| 80 | B3 |
